{
  "source": "paper PMC6899773",
  "about": "(Chemistry (Weinheim an Der Bergstrasse, Germany), 2019)",
  "target": "the molecule itself",
  "assay": "AUC",
  "data": [
    {"protein": "DC-SIGN extracellular domain (ECD) (domain or fragment, UniProt Q9NNX6 66-404, looked up) SISQEQSRQDAIYQNLTQLKAAVGELSEKSKLQEIYQELTQLKAAVGELPEKSKLQEIYQELTRLKAAVGELPEKSKLQEIYQELTWLKAAVGELPEKSKMQEIYQELTRLKAAVGELPEKSKQQEIYQELTRLKAAVGELPEKSKQQEIYQELTRLKAAVGELPEKSKQQEIYQELTQLKAAVERLCHPCPWEWTFFQGNCYFMSNSQRNWHDSITACKEVGAQLVVIKSAEEQNFLQLQSSRSNRFTWMGLSDLNQEGTWQWVDGSPLLPSFKQYWNRGEPNNVGEEDCAEFSGNGWNDDKCNLAKFWICKKSAASCSRDEEQFLSPAPATPNPPPA", "values": [
      {"measurement": "stoichiometry N", "value": 4}
    ]}
  ]
}
